Measured values: patent US4285932A, “Enzyme derivatives for use in the treatment of venous thrombosis” (Beecham Group Limited, priority 1978, dated 1981)

B1: Trans-Cinnamoyl Porcine Plasmin (protein, UniProt P06867 20-579; P06867 580-809, looked up)
Plasmin heavy chain A: DSLDDYVNTQGAFLFSLSRKQVAARSVEECAAKCEAETNFICRAFQYHSKDQQCVVMAENSKTSPIARMRDVVLFEKRIYLSECKTGNGKNYRGTTSKTKSGVICQKWSVSSPHIPKYSPEKFPLAGLEENYCRNPDNDEKGPWCYTTDPETRFDYCDIPECEDECMHCSGEHYEGKISKTMSGIECQSWGSQSPHAHGYLPSKFPNKNLKMNYCRNPDGEPRPWCFTTDPNKRWEFCDIPRCTTPPPTSGPTYQCLKGRGENYRGTVSVTASGHTCQRWSAQSPHKHNRTPENFPCKNLEENYCRNPDGETAPWCYTTDSEVRWDYCKIPSCGSSTTSTEYLDAPVPPEQTPVAQDCYRGNGESYRGTSSTTITGRKCQSWVSMTPHRHEKTPGNFPNAGLTMNYCRNPDADKSPWCYTTDPRVRWEYCNLKKCSETEQQVTNFPAIAQVPSVEDLSEDCMFGNGKRYRGKRATTVAGVPCQEWAAQEPHRHSIFTPETNPRAGLEKNYCRNPDGDDNGPWCYTTNPQKLFDYCDVPQCVTSSFDCGKPKVEPKKCPAR
Plasmin light chain B: VVGGCVSIPHSWPWQISLRHRYGGHFCGGTLISPEWVLTAKHCLEKSSSPSSYKVILGAHEEYHLGEGVQEIDVSKLFKEPSEADIALLKLSSPAIITDKVIPACLPTPNYVVADRTACYITGWGETKGTYGAGLLKEARLPVIENKVCNRYEYLGGKVSPNELCAGHLAGGIDSCQGDSGGPLVCFEKDKYILQGVTSWGLGCALPNKPGVYVRVSRFVTWIEEIMRRN
modifications: plasmin trans-cinnamoyl acylated active site
notes: porcine plasmin acylated with p-amidinophenyl transcinnamate
B2: p-Methyl-t-cinnamoyl: porcine plasmin, active site serine blocked by p-methyl-trans-cinnamoyl (protein, UniProt P06867 20-579; P06867 580-809, looked up)
Plasmin heavy chain A: B1 Plasmin heavy chain A
Plasmin light chain B: B1 Plasmin light chain B
modifications: plasmin p-methyl-trans-cinnamoyl acylated active site
B3: p-Fluorobenzoyl: porcine plasmin, active site serine blocked by p-fluorobenzoyl (protein, UniProt P06867 20-579; P06867 580-809, looked up)
Plasmin heavy chain A: B1 Plasmin heavy chain A
Plasmin light chain B: B1 Plasmin light chain B
modifications: plasmin p-fluorobenzoyl acylated active site
B4: p-Anisoyl: porcine plasmin, active site serine blocked by p-anisoyl; porcine column of Table 1 (protein, UniProt P06867 20-579; P06867 580-809, looked up)
Plasmin heavy chain A: B1 Plasmin heavy chain A
Plasmin light chain B: B1 Plasmin light chain B
modifications: plasmin p-anisoyl acylated active site
B5: Acetylsalicycloyl: human plasmin, active site serine blocked by acetylsalicyloyl (acylating agent of Example 7) (protein, UniProt P00747 20-580; P00747 581-810, looked up)
Plasmin heavy chain A: EPLDDYVNTQGASLFSVTKKQLGAGSIEECAAKCEEDEEFTCRAFQYHSKEQQCVIMAENRKSSIIIRMRDVVLFEKKVYLSECKTGNGKNYRGTMSKTKNGITCQKWSSTSPHRPRFSPATHPSEGLEENYCRNPDNDPQGPWCYTTDPEKRYDYCDILECEEECMHCSGENYDGKISKTMSGLECQAWDSQSPHAHGYIPSKFPNKNLKKNYCRNPDRELRPWCFTTDPNKRWELCDIPRCTTPPPSSGPTYQCLKGTGENYRGNVAVTVSGHTCQHWSAQTPHTHNRTPENFPCKNLDENYCRNPDGKRAPWCHTTNSQVRWEYCKIPSCDSSPVSTEQLAPTAPPELTPVVQDCYHGDGQSYRGTSSTTTTGKKCQSWSSMTPHRHQKTPENYPNAGLTMNYCRNPDADKGPWCFTTDPSVRWEYCNLKKCSGTEASVVAPPPVVLLPDVETPSEEDCMFGNGKGYRGKRATTVTGTPCQDWAAQEPHRHSIFTPETNPRAGLEKNYCRNPDGDVGGPWCYTTNPRKLYDYCDVPQCAAPSFDCGKPQVEPKKCPGR
Plasmin light chain B: VVGGCVAHPHSWPWQVSLRTRFGMHFCGGTLISPEWVLTAAHCLEKSPRPSSYKVILGAHQEVNLEPHVQEIEVSRLFLEPTRKDIALLKLSSPAVITDKVIPACLPSPNYVVADRTECFITGWGETQGTFGAGLLKEAQLPVIENKVCNRYEFLNGRVQSTELCAGHLAGGTDSCQGDSGGPLVCFEKDKYILQGVTSWGLGCARPNKPGVYVRVSRFVTWIEGVMRNN
modifications: plasmin acetylsalicyloyl acylated active site
B6: 3,3 Dimethylacryloyl: human plasmin, active site serine blocked by 3,3-dimethylacryloyl (acylating agent of Example 4) (protein, UniProt P00747 20-580; P00747 581-810, looked up)
Plasmin heavy chain A: B5 Plasmin heavy chain A
Plasmin light chain B: B5 Plasmin light chain B
modifications: plasmin 3,3-dimethylacryloyl acylated active site
B7: 3 Methyl 4-methoxybenzoyl: human plasmin, active site serine blocked by 3-methyl-4-methoxybenzoyl (acylating agent of Example 17) (protein, UniProt P00747 20-580; P00747 581-810, looked up)
Plasmin heavy chain A: B5 Plasmin heavy chain A
Plasmin light chain B: B5 Plasmin light chain B
modifications: plasmin 3-methyl-4-methoxybenzoyl acylated active site
B8: O-Toloyl: human plasmin, active site serine blocked by o-toluoyl (acylating agent of Example 9) (protein, UniProt P00747 20-580; P00747 581-810, looked up)
Plasmin heavy chain A: B5 Plasmin heavy chain A
Plasmin light chain B: B5 Plasmin light chain B
modifications: plasmin o-toluoyl acylated active site
B9: p-Ethoxybenzoyl: human plasmin, active site serine blocked by p-ethoxybenzoyl (acylating agent of Example 8) (protein, UniProt P00747 20-580; P00747 581-810, looked up)
Plasmin heavy chain A: B5 Plasmin heavy chain A
Plasmin light chain B: B5 Plasmin light chain B
modifications: plasmin p-ethoxybenzoyl acylated active site
B10: 2,4 Dimethoxybenzoyl: human plasmin, active site serine blocked by 2,4-dimethoxybenzoyl (acylating agent of Example 6) (protein, UniProt P00747 20-580; P00747 581-810, looked up)
Plasmin heavy chain A: B5 Plasmin heavy chain A
Plasmin light chain B: B5 Plasmin light chain B
modifications: plasmin 2,4-dimethoxybenzoyl acylated active site

What follows are molecules tested on streptokinase-human plasminogen activator complex (assay: Deacylation of acylated streptokinase-human plasminogen activator complex to free enzyme). Conditions: acyl-activator complex solution; 37° C.
Type: biochemical
Experimental: (§1) The pseudo-first order rate constant is determined by hydrolysing the enzyme derivative under physiological conditions i.e. in isotonic aqueous media at pH 7.4 and at 37° C. At regular intervals aliquots are withdrawn and incubated with a chromogenic or fluorogenic protease substrate such as S-2251 (H-D-Val-Leu-Lys-p-nitroanilide 2HCl) and the rate of conversion of the substrate measured.
(§2) The hydrolysis is followed until such time as the rate of conversion of substrate reaches a maximum. The rate constant k is then calculated by plotting: […]
(§3) loge (1-^At /Amax) against t
(§4) where Amax the maximum rate at which an aliquot converts substrate and At is the rate at which an aliquot converts substrate at time t.

Molecule | pseudo-first order (deacylation) rate constant of regeneration to free enzyme [s⁻¹]
3-Methyl p-Anisoyl Streptokinase-human Plasminogen Activator Complex [Example 23] | 0.0001
p-Anisoyl Streptokinase-Human Plasminogen Activator Complex [Example 22] | 0.00027

These molecules were tested on Porcine Plasmin (assay: Deacylation (hydrolysis) of active-site blocked porcine plasmin, pseudo-first order rate constant followed by regain of activity on chromogenic substrate). Conditions: active site serine substituted porcine plasmin; pH 7.4, 37° C.
Type: biochemical
Experimental: as §1, §2, §3, §4

Molecule | Deacylation rate, Porcine Plasmin K sec^-1 × 10^4 [sec^-1 × 10^4]
B1 | 4.20
B2 | 2.92
B3 | 3.30
B4 | 0.33

Same assay, conditions: deacylation conditions

Molecule | time for reactivation
B1 | two

These molecules were tested on Human Plasmin (assay: Deacylation (hydrolysis) of active-site blocked human plasmin, pseudo-first order rate constant followed by regain of activity on chromogenic substrate S-2251). Conditions: active site serine substituted human plasmin; pH 7.4, 37° C.
Type: biochemical
Experimental: as §1, §2, §3, §4

Molecule | Deacylation rate, Human Plasmin K sec^-1 × 10^4 [sec^-1 × 10^4]
B4 | 1.10
B5 | 4.70
B6 | 0.69
B7 | 0.70
B8 | 1.71
B9 | 1.10
B10 | 1.10

These molecules were tested on Porcine Plasmin (assay: Residual enzyme activity of blocked porcine plasmin versus original enzyme). Conditions: after acylation and dialysis.
Type: biochemical
Experimental: The time for which the reaction is allowed to proceed depends upon the blocking reagent employed, the temperature at which the reaction is carried out and the enzyme selected for blocking. The optimum time period for any particular circumstances may be selected by following the decrease in enzymic activity by incubating aliquots with a chromogenic or fluorogenic substrate.

Molecule | activity of the derivative relative to the original enzyme
B1 | less than 0.5%
